± gives the uncertainty stated by the source.

A short description of this data set: amyloid nucleation score (Sup35N fusion, yeast selection) (log enrichment); library NNK2; higher = more nucleation; inactive = no reads after selection. The gist of the method:
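Nucleation score: DiMSum log enrichment of output over input reads, centred on the mode score of non-aggregating sequences. Only sequences with at least 100 input reads were kept. Reads came from Illumina sequencing of plasmid inserts before and after 7 days of growth at 30°C without adenine and uracil, in psi-negative yeast expressing Sup35N fused to peptides of 20 random codons after 24 hours of induction with 100 μM copper sulfate.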
With TILDIVLIIPAKVVHKEERR, the amyloid nucleation score is -0.093 ± 0.41.
The value for TILVTKG was 4.89 ± 0.11; that for TIRRVRSALQQHM was 0.041 ± 0.49; that for TIRSCVNF was 1.41 ± 0.1.
The value for TISDTCHESRLDVMRNVPYM was 5.091 ± 0.043; that for TISLDM was -0.033 ± 0.25.
The value for TITHLSNACTYMVDIRSFTF was 5.38 ± 0.068.
For TKATRINEGLLNLYALFGGK, the amyloid nucleation score turned out to be 0.974 ± 0.17.
The value for TKICMASHATVFALYVYCSL was “inactive”; that for TKRAIDWA was 0.669 ± 0.8; that for TKRHE was 0.987 ± 0.58.
The value for TKTILRILSQFIYDSPLLEM was -0.19 ± 1.1; that for TKVQERLGHF was 1.46 ± 0.58.
As to TLASRTNF, the amyloid nucleation score result is “inactive”.
Consider TLCWLYLWVYRCKDYEELTC, for which the amyloid nucleation score was -0.167 ± 0.63.
With TLDVGLGAAQCVIGISGWYE the figure was 1.1 ± 0.15; with TLFIMC, 0.074 ± 0.54.
Substance TLFLRMVSLHFKSVVLWNWF registered an amyloid nucleation score of 0.213 ± 0.8.
With TLFQFWKYLVSTTCIML the figure was 3.18 ± 0.11; with TLGGSSTFRY, -0.152 ± 0.45; with TLGMYFFVSMLSLLVSVNGF, -0.427 ± 1.1.
TLGVSRNLALSTEARTLRPY: the amyloid nucleation score was -0.041 ± 0.42.
The value for TLLFHTRSYVYICVLVWKQH was 0.049 ± 0.8; that for TLLSASYGV was -0.742 ± 0.79.
The value for TLLWSRTMYVGIPSYRYGGA was 0.676 ± 0.8; that for TLMDLNNHPTYGYLLVPTVD was -0.307 ± 0.79.
With TLMFVKNFDVRCEWEASFTM the figure was 5.37 ± 0.077.
As to TLRSETMSDWYSRLHGFVFK, the amyloid nucleation score amounted to 0.988 ± 0.52.
The value for TLVRSVQLCCGISAWNMEAR was 11.43 ± 0.031; that for TLYFYFRLSW was 0.276 ± 0.8; that for TLYYIVRHQICANFYRMYNG was “inactive”.
With TMFLYSNAEDFF the entry was “inactive”.
The substance TMLTFG came in with an amyloid nucleation score of -0.913 ± 0.76.
TMRFLVGFCLTNWDNLNASC: the amyloid nucleation score is 3.67 ± 0.05.
The value for TMSQYLGNRCTTNGYSFGVS was -0.272 ± 1.1; that for TMYFWLMSLVWLLSVSFRAW was 2.54 ± 0.1.
The value for TNAIYRGVLGSMDQGT was “inactive”.
Substance TNISMLNDVGEGCFGERSLV showed an amyloid nucleation score of -0.291 ± 0.54.
The value for TNQGFLWVSPLILTRCGDRQ was 6.68 ± 0.079; that for TNSALGSMVYELGRPLVWFF was “inactive”.
With TNTLMGPFWLSWSNVQPNRS the figure was -0.787 ± 0.54; with TNWGNAVSSAMRLGSL, 0.438 ± 0.28.
With TPCIMWKLGLFFVDCCFGFP the figure was 4.1 ± 0.12.
Turning to TPDVLGLRHYRLTIVTYH, the amyloid nucleation score came out at 1.22 ± 0.31.
The value for TPGCF was “inactive”; that for TPNNYLYTSFVAY was “inactive”.
With TPSECRCWEEFHGWTHLLRL the figure was 0.461 ± 0.48; with TPSRFWPMLFSVNLWLRGWL, 0.017 ± 0.62; with TPTWESNQVL, 0.502 ± 0.65.
As for TPVSCFTCRQCLVTGLHTLR, the amyloid nucleation score came out at 0.466 ± 0.26.
With TPVYPRRSIVLICSISMLRK the figure was 4.12 ± 0.064.
For TQINEVLL, the amyloid nucleation score was -0.722 ± 0.28.
In the case of TQLIVMCHFVVHRRVKWRI, the amyloid nucleation score turned out to be 0.786 ± 0.3.
The value for TQLSV was -0.046 ± 1; that for TRAFLIIRYVKLDTNFVI was 2.19 ± 0.064; that for TRALDPVSVSRISVRQQPLA was 1.12 ± 0.2.
With TRAPGRDFVGEGEACALDET the figure was -0.799 ± 0.54; with TRCKHDDVW, 1.5 ± 0.33.
With TRGCFAVSSKYMLSYVGLNR the figure was -0.021 ± 0.21.
Take TRLCRNLAASPGFLWTVYKS: the amyloid nucleation score result is “inactive”.
As for TRLVWIFLSPM, the amyloid nucleation score was -0.169 ± 0.25.
With TRNSFRSSLWVLRGGCV the figure was -0.523 ± 0.37; with TRPRVKPWAMFRNIYD, -1.33 ± 0.44.
The value for TRRCIERNRNVLFFTFMCRL was 1.41 ± 0.27; that for TRSYQLLLVSLVAGNFVE was 1.5 ± 0.27; that for TRTQMW was 0.739 ± 0.43.
TRVFTSWFVV came in with an amyloid nucleation score of 0.342 ± 0.65.
With TRVNNGSTVHNKMLTS the figure was 0.634 ± 0.74.
The value for TRYMFMVTKLPGPGGCSVNE was “inactive”; that for TSANLLLYRVLKSFLARQHQ was 0.062 ± 0.46; that for TSIMPDSFFRSLKVSF was -0.249 ± 0.56.
With TSRKTEFQPFAGSICLYMGI the figure was 0.18 ± 0.63; with TSRML, 0.67 ± 0.39; with TSRRL, 2.1 ± 0.13.
TTDCSNDLSAILVCLSHGAL came in with an amyloid nucleation score of -0.19 ± 1.
TTLRCHLIESKWGYVRRLTW registered an amyloid nucleation score of 4.33 ± 0.088.
As to TTMIAVVRFTRD, the amyloid nucleation score stood at 2.07 ± 0.29.
In the case of TTNSFINLVYMNMHK, the amyloid nucleation score is 6.63 ± 0.075.
On to TTRAKHVHWYELHNVFMLQL, for which the amyloid nucleation score stood at 7.483 ± 0.054.
With TTSLSYFLIQKALLWKVEYH the figure was -1.38 ± 0.38; with TTTCLMLLRVNFNTALLIRN, -1.41 ± 0.49.
The value for TTYSRS was -1.26 ± 0.62; that for TVCFDSLNHITSFIRGRFSL was “inactive”.
With TVFKYLTFLGSIVFSTVPLV the figure was 0.088 ± 0.56; with TVFLTGRFCWVFPRSCYLSY, -0.758 ± 0.33.
The substance TVFSK came in with an amyloid nucleation score of -0.998 ± 0.76.
The value for TVHRLRNVCLL was 2.51 ± 0.25.
With TVLGRGLILWDVGGLSE the figure was -0.906 ± 0.34.
With TVMGPVILTCVGIAVTSASS the figure was 3.86 ± 0.1; with TVMNVDWFKDYLLTNFVCSD, 0.063 ± 0.36; with TVNCSTCM, -0.562 ± 0.19.
Substance TVSGDTSRRSRMNFSFYMQR registered an amyloid nucleation score of -0.266 ± 1.1.
In turn, TVSKDDMTALVSAIMASNRW gave an amyloid nucleation score of 1.06 ± 0.32.
In the case of TVSLYIDYPSVLGFPWSY, the amyloid nucleation score was -0.952 ± 0.55.
With TVSRTVCVASYCLSSEKTSG, the amyloid nucleation score was -0.899 ± 0.31.
The value for TVSVNLYNFVLQTSY was 4.55 ± 0.069.
Take TVVFYNNIIFGFDFSSAKWL: the amyloid nucleation score is 6.21 ± 0.067.
The substance TVWRARLGSPCGFLCVDRSW registered an amyloid nucleation score of 0.414 ± 0.53.
With TVWYCALSL the figure was 10.61 ± 0.07.
The substance TWGPWTLMSVLSCGVYGSHG gave an amyloid nucleation score of 4.3 ± 0.084.
The value for TWGQVII was -0.465 ± 1; that for TWGVLFAYSIEDCVGINYLG was 0.73 ± 0.18.
In the case of TWKVDF, the amyloid nucleation score result was “inactive”.
The value for TWMGVHVRSYHQHC was 0.878 ± 0.42.
Regarding TWVGWS, the amyloid nucleation score is -0.841 ± 0.79.
With TYCKFVNFYESVKER the figure was 6.753 ± 0.037; with TYDWEFFNDYYQM, 0.161 ± 0.77; with TYFVVGDSLSVIFSGRNWGV, 5.408 ± 0.043.
Consider TYGHDKLRVSNIEHQLPGRA, for which the amyloid nucleation score amounted to 0.306 ± 0.64.
The value for TYGLVTRTGAV was 0.247 ± 0.43; that for TYICT was -0.59 ± 0.24; that for TYLKHVRKS was 1.11 ± 0.24.
In the case of TYSGEIKL, the amyloid nucleation score entry was “inactive”.
With TYVHDPGFPLWLDMAKRFGL the figure was 0.581 ± 0.5; with TYVHNKVCKNACNFSTLGPC, 0.143 ± 0.8.
TYVLSGEGEIKA gave an amyloid nucleation score of 1.54 ± 0.33.
With TYVYNGAYVVGNWL the figure was -0.964 ± 0.54; with VAFNGYLY, -0.89 ± 0.48; with VAGDLGGRSELLARIRSGHA, “inactive”.
The value for VANEDDRYYTYGADWERLLL was 0.844 ± 0.56; that for VARVWEWFCVCWTWDSELVG was 3.69 ± 0.057.
The substance VATWGDQVLRMRWAALRLCV gave an amyloid nucleation score of 5.96 ± 0.079.
The value for VAVISDWGWQNWMSVVGVGH was “inactive”; that for VAWITLMIPHIYFQSGILWD was -1 ± 0.25; that for VAYLTFLWNQYAVRARKRLP was -0.085 ± 0.35.
With VCCAFLCASRAVVYTGKDMH the figure was 10.18 ± 0.027; with VCCRDKMSHCRSAALNMVLL, 3.49 ± 0.12; with VCDVDTNVVTSNWTSCLFRK, “inactive”.
With VCFGEQT the figure was 0 ± 0.21; with VCFRYGEYLNVKIF, -0.789 ± 0.63; with VCFVM, -0.016 ± 0.79.
VCRDYGVMSMRRDWLCRMSL had an amyloid nucleation score of 0.391 ± 0.65.
The value for VCRNDRLVWCKLGVEFSGVA was 1.31 ± 0.26.
With VCSMEGYEAVYSRRRELLWS, the amyloid nucleation score was 0.08 ± 0.36.
The value for VCVFTDLGCRY was -0.493 ± 1.1.
With VCVQDRLRC the figure was 0.518 ± 0.5; with VCYNT, 0.833 ± 0.74.
With VDCGFRRLFVFTNSIYCVCR the figure was 5.321 ± 0.053.
Take VDDWSADIMKGDRVLYS: the amyloid nucleation score result was “inactive”.
On to VDFFCQPGTCVQEVEDLLVL, for which the amyloid nucleation score was -0.166 ± 0.35.
The value for VDFTCLYSVNFRIHVYISDM was 2.71 ± 0.2.
The value for VDISNFTVCRHAIKDLTFRV was 0.149 ± 0.41.

(Values after the supplement of paper PMC12042874.)
